{
  "source": "patent US12534748B2",
  "about": "“Engineered beta-subunit of tryptophan synthase for production of non-canonical amino acids” (California Institute of Technology, priority 2015, dated 2026)",
  "key": {"[1]": {"substrate": "c1ccc2[nH]ccc2c1", "assay": "purified protein, by the assay type", "details": "pH 8.0"}, "[2]": {"substrate": "c1ccc2[nH]ccc2c1", "assay": "Tryptophan formation from L-serine and indole, kinetics of wild-type PfTrpB", "assay_type": "biochemical, Pyrococcus furiosus", "details": "other: 75° C., pH 8.0", "protocol": "(§1) Cloning, Expression, and Purification of PfTrpA and PfTrpB. The genes encoding PfTrpB (UNIPROT ID Q8U093) and PfTrpA (UNIPROT ID Q8U094) were obtained as gBlocks and cloned into pET22(b)+ for expression in E. coli BL21 E. cloni EXPRESS cells (Lucigen). Heterologous protein expression of PfTrpA and PfTrpB was performed in Terrific Broth with 100 μg/mL ampicillin (TBamp) and induced with 500 mM IPTG (final concentration 1 mM). PfTrpB was purified via a HisTrap HP column. PfTrpA was purified via a Q HP HiTrap column (flow-through), followed by ammonium sulfate precipitation, and hydrophobic interaction chromatography on a phenyl Sepharose HP HiTrap column (FIG. 3).\n(§2) Kinetics and UV-Vis Spectroscopy. Data were collected between 550 and 250 nm on a UV1800 Shimadzu spectrophotometer (Shimadzu) using 0.25-20 μM of enzyme in 200 mM potassium phosphate (pH 8.0) in a quartz cuvette. Samples were incubated at 75° C. for >3 min to ensure a stable temperature was reached. PfTrpB activity (kcat) was measured by monitoring tryptophan formation at 290 nm using Δe290=1.89 mM^−1·cm^−1.\n(§3) Selection of the Parent Enzyme, TrpB, from Pyrococcus furiosus. […]"}, "[3]": {"substrate": "N[C@@H](CO)C(=O)O", "assay": "Tryptophan formation from L-serine and indole, kinetics of wild-type PfTrpB", "assay_type": "biochemical, Pyrococcus furiosus", "details": "other: 75° C., pH 8.0", "protocol": "as §1, §2, §3"}, "[4]": {"substrate": "N[C@@H](CO)C(=O)O", "assay": "Tryptophan formation from L-serine and indole, kinetics of PfTrpB^2G9", "assay_type": "biochemical, Pyrococcus furiosus", "details": "other: 75° C., pH 8.0"}, "[5]": {"substrate": "N[C@@H](CO)C(=O)O", "assay": "purified protein, by the assay type", "details": "other: 75° C., pH 8.0"}, "[6]": {"substrate": "N[C@@H](CO)C(=O)O", "assay": "Tryptophan formation from L-serine and indole, kinetics of PfTrpS complex", "assay_type": "biochemical, Pyrococcus furiosus", "details": "other: 75° C., pH 8.0"}, "[7]": {"substrate": "N[C@@H](CO)C(=O)O", "assay": "Tryptophan formation from L-serine and indole, kinetics of PfTrpB^4D11", "assay_type": "biochemical, Pyrococcus furiosus", "details": "other: 75° C., pH 8.0"}},
  "data": [
    {"protein": "Archaeoglobus fulgidus TrpB variant AfTrpB^0B2 (P25L, E30G, I80V, F285S, T303S, T332A), SEQ ID NO: 22 (Archaeoglobus fulgidus DSM 4304; … (protein) MRCWLENLSGGRKMKFGEFGGRFVLEVLIGPLEELEKAYDRFKDDEEFKARLEYYLKSYAGRPTPLYFAENLSRELGVKVYLKREDLLHGGAHKINNTIGQALLAKFMGKKRVIAETGAGQHGVATAMAAALLGLEAEIYMGAEDYERQKMNVFRMELLGAKVTAVESGSRTLKDAINEALRDWVESFEHTHYLIGSVVGPHPFPTIVRDFQAVIGKEARRQIIEAEGGMPDAIIACVGGGSNAMGIFHPFLNDDVRLIGVEAGGEGIESGRHSASLTAGSKGVSHGMLSYFLQDEEGMMLDSHSVSAGLDYPGVGPEHAYLKETGRCEYVAVNDEEALRAFKTLSKLEGIIPALESAHAIAYAMKMAEEMQRDDVLVVNLSGRGDKDMDIVRRRLALEHHHHHH", "values": [
      {"measurement": "Km", "setting": "[1]; other: 60° C.", "value": 4.8, "unit": "µM"}
    ]},
    {"protein": "Thermotoga maritima TrpB variant TmTrpB^0B2 (P14L, P19G, I69V, L274S, T292S) (Thermotoga maritima MSB8; I69V/L274S/P14L/P19G/T292S) (protein) MKGYFGPYGGQYVLEILMGALEELEAAYEEIMKDESFWKEFNDLLRDYAGRPTPLYFARRLSEKYGARVYLKREDLLHTGAHKINNAIGQVLLAKKMGKTRIIAETGAGQHGVATATAAALFGMECVIYMGEEDTIRQKPNVERMKLLGAKVVPVKSGSRTLKDAINEALRDWITNLQTTYYVIGSVVGPHPYPIIVRNFQKVIGEETKKQILEKEGRLPDYIVACVGGGSNAAGIFYPFIDSGVKLIGVEAGGEGLETGKHAASLLKGKIGYSHGSKTFVLQDDWGQVQVSHSVSAGLDYSGVGPEHAYWRETGKVLYDAVTDEEALDAFIELSRLEGIIPALESSHALAYLKKINIKGKVVVVNLSGRGDKDLESVLNHPYVRERIRLEHHHHHH", "values": [
      {"measurement": "Km", "setting": "[1]; other: 75° C.", "value": 72, "unit": "µM"}
    ]},
    {"protein": "Pyrococcus furiosus tryptophan synthase beta-subunit PfTrpB, wild type, SEQ ID NO: 2 (Pyrococcus furiosus DSM 3638) (protein) MWFGEFGGQYVPETLIEPLKELEKAYKRFKDDEEFNRQLNYYLKTWAGRPTPLYYAKRLTEKIGGAKIYLKREDLVHGGAHKTNNAIGQALLAKFMGKTRLIAETGAGQHGVATAMAGALLGMKVDIYMGAEDVERQKMNVFRMKLLGANVIPVNSGSRTLKDAINEALRDWVATFEYTHYLIGSVVGPHPYPTIVRDFQSVIGREAKAQILEAEGQLPDVIVACVGGGSNAMGIFYPFVNDKKVKLVGVEAGGKGLESGKHSASLNAGQVGVFHGMLSYFLQDEEGQIKPTHSIAPGLDYPGVGPEHAYLKKIQRAEYVTVTDEEALKAFHELSRTEGIIPALESAHAVAYAMKLAKEMSRDEIIIVNLSGRGDKDLDIVLKVSGNVLEHHHHHH", "values": [
      {"measurement": "Km", "setting": "[2]", "value": "77 ± 12", "unit": "µM"},
      {"measurement": "Km", "setting": "[3]", "value": "1200 ± 100", "unit": "µM"}
    ]},
    {"protein": "Pyrococcus furiosus TrpB variant PfTrpB^2G9 (T292S), SEQ ID NO: 10 (Pyrococcus furiosus DSM 3638; T292S) (protein) MWFGEFGGQYVPETLIEPLKELEKAYKRFKDDEEFNRQLNYYLKTWAGRPTPLYYAKRLTEKIGGAKIYLKREDLVHGGAHKTNNAIGQALLAKFMGKTRLIAETGAGQHGVATAMAGALLGMKVDIYMGAEDVERQKMNVFRMKLLGANVIPVNSGSRTLKDAINEALRDWVATFEYTHYLIGSVVGPHPYPTIVRDFQSVIGREAKAQILEAEGQLPDVIVACVGGGSNAMGIFYPFVNDKKVKLVGVEAGGKGLESGKHSASLNAGQVGVFHGMLSYFLQDEEGQIKPSHSIAPGLDYPGVGPEHAYLKKIQRAEYVTVTDEEALKAFHELSRTEGIIPALESAHAVAYAMKLAKEMSRDEIIIVNLSGRGDKDLDIVLKVSGNVLEHHHHHH", "values": [
      {"measurement": "Km", "setting": "[4]", "value": 840, "unit": "µM"}
    ]},
    {"protein": "Pyrococcus furiosus TrpB variant PfTrpB^0B2 (P12L, E17G, I68V, T292S, F274S, T321A), SEQ ID NO: 12 (Pyrococcus furiosus DSM 3638; … (protein) MWFGEFGGQYVLETLIGPLKELEKAYKRFKDDEEFNRQLNYYLKTWAGRPTPLYYAKRLTEKIGGAKVYLKREDLVHGGAHKTNNAIGQALLAKFMGKTRLIAETGAGQHGVATAMAGALLGMKVDIYMGAEDVERQKMNVFRMKLLGANVIPVNSGSRTLKDAINEALRDWVATFEYTHYLIGSVVGPHPYPTIVRDFQSVIGREAKAQILEAEGQLPDVIVACVGGGSNAMGIFYPFVNDKKVKLVGVEAGGKGLESGKHSASLNAGQVGVSHGMLSYFLQDEEGQIKPSHSIAPGLDYPGVGPEHAYLKKIQRAEYVAVTDEEALKAFHELSRTEGIIPALESAHAVAYAMKLAKEMSRDEIIIVNLSGRGDKDLDIVLKVSGNVLEHHHHHH", "values": [
      {"measurement": "Km", "setting": "[1]; other: 75° C.", "value": 8.7, "unit": "µM"},
      {"measurement": "Km", "setting": "[5]", "value": 700, "unit": "µM"}
    ]},
    {"protein": "Pyrococcus furiosus tryptophan synthase complex PfTrpS (PfTrpA + PfTrpB) (Pyrococcus furiosus DSM 3638) (protein) MWFGEFGGQYVPETLIEPLKELEKAYKRFKDDEEFNRQLNYYLKTWAGRPTPLYYAKRLTEKIGGAKIYLKREDLVHGGAHKTNNAIGQALLAKFMGKTRLIAETGAGQHGVATAMAGALLGMKVDIYMGAEDVERQKMNVFRMKLLGANVIPVNSGSRTLKDAINEALRDWVATFEYTHYLIGSVVGPHPYPTIVRDFQSVIGREAKAQILEAEGQLPDVIVACVGGGSNAMGIFYPFVNDKKVKLVGVEAGGKGLESGKHSASLNAGQVGVFHGMLSYFLQDEEGQIKPTHSIAPGLDYPGVGPEHAYLKKIQRAEYVTVTDEEALKAFHELSRTEGIIPALESAHAVAYAMKLAKEMSRDEIIIVNLSGRGDKDLDIVLKVSGNVLEHHHHHH", "values": [
      {"measurement": "Km", "setting": "[6]", "value": 600, "unit": "µM"}
    ]},
    {"protein": "Pyrococcus furiosus TrpB variant PfTrpB^4D11 (E17G, I68V, T292S, F274S, T321A), SEQ ID NO: 16 (Pyrococcus furiosus DSM 3638; E17G/F274S/I68V/T292S/T321A) (protein) MWFGEFGGQYVPETLIGPLKELEKAYKRFKDDEEFNRQLNYYLKTWAGRPTPLYYAKRLTEKIGGAKVYLKREDLVHGGAHKTNNAIGQALLAKFMGKTRLIAETGAGQHGVATAMAGALLGMKVDIYMGAEDVERQKMNVFRMKLLGANVIPVNSGSRTLKDAINEALRDWVATFEYTHYLIGSVVGPHPYPTIVRDFQSVIGREAKAQILEAEGQLPDVIVACVGGGSNAMGIFYPFVNDKKVKLVGVEAGGKGLESGKHSASLNAGQVGVSHGMLSYFLQDEEGQIKPSHSIAPGLDYPGVGPEHAYLKKIQRAEYVAVTDEEALKAFHELSRTEGIIPALESAHAVAYAMKLAKEMSRDEIIIVNLSGRGDKDLDIVLKVSGNVLEHHHHHH", "values": [
      {"measurement": "Km", "setting": "[7]", "value": 1200, "unit": "µM"}
    ]},
    {"protein": "Pyrococcus furiosus TrpB variant M144T N166D (Table 6 prints N166T), SEQ ID NO: 20 (Pyrococcus furiosus DSM 3638; M144T/N166D) (protein) MWFGEFGGQYVPETLIEPLKELEKAYKRFKDDEEFNRQLNYYLKTWAGRPTPLYYAKRLTEKIGGAKIYLKREDLVHGGAHKTNNAIGQALLAKFMGKTRLIAETGAGQHGVATAMAGALLGMKVDIYMGAEDVERQKMNVFRTKLLGANVIPVNSGSRTLKDAIDEALRDWVATFEYTHYLIGSVVGPHPYPTIVRDFQSVIGREAKAQILEAEGQLPDVIVACVGGGSNAMGIFYPFVNDKKVKLVGVEAGGKGLESGKHSASLNAGQVGVFHGMLSYFLQDEEGQIKPTHSIAPGLDYPGVGPEHAYLKKIQRAEYVTVTDEEALKAFHELSRTEGIIPALESAHAVAYAMKLAKEMSRDEIIIVNLSGRGDKDLDIVLKVSGNVLEHHHHHH", "values": [
      {"measurement": "Km", "setting": "[1]; other: 75° C.", "value": 42, "unit": "µM"}
    ]}
  ]
}
